{"source": "patent US20050113284A1", "about": "“Drug for regenerating tissue and vessel and method therefor” (priority 2001, published 2005)", "molecules": {"B1": {"name": "prey DNA F: c-Met prey protein, amino acids 993-1053 of SEQ ID NO: 4 (protein, listed as Homo sapiens)", "chain": "RRLLQPEYCPDPLYEVMLKCWHPKAEMRPSFSELVSRISAIFSTFIGEHYVHVNATYVNVK"}, "B2": {"name": "prey DNA D: c-Met prey protein, amino acids 993-1073 of SEQ ID NO: 4 (protein, listed as Homo sapiens)", "chain": "RRLLQPEYCPDPLYEVMLKCWHPKAEMRPSFSELVSRISAIFSTFIGEHYVHVNATYVNVKCVAPYPSLLSSEDNADDEVD"}, "B3": {"name": "prey DNA B: c-Met prey protein, amino acids 1013-1083 of SEQ ID NO: 4 (protein, listed as Homo sapiens)", "chain": "WHPKAEMRPSFSELVSRISAIFSTFIGEHYVHVNATYVNVKCVAPYPSLLSSEDNADDEVDTRPASFWETS"}, "B4": {"name": "prey DNA A: c-Met prey protein, amino acids 1003-1083 of SEQ ID NO: 4 (protein, listed as Homo sapiens)", "chain": "DPLYEVMLKCWHPKAEMRPSFSELVSRISAIFSTFIGEHYVHVNATYVNVKCVAPYPSLLSSEDNADDEVDTRPASFWETS"}, "B5": {"name": "prey DNA C: c-Met prey protein, amino acids 1023-1083 of SEQ ID NO: 4 (protein, listed as Homo sapiens)", "chain": "FSELVSRISAIFSTFIGEHYVHVNATYVNVKCVAPYPSLLSSEDNADDEVDTRPASFWETS"}, "B6": {"name": "prey DNA E: c-Met prey protein, amino acids 993-1063 of SEQ ID NO: 4 (protein, listed as Homo sapiens)", "chain": "RRLLQPEYCPDPLYEVMLKCWHPKAEMRPSFSELVSRISAIFSTFIGEHYVHVNATYVNVKCVAPYPSLLS"}, "B7": {"name": "clone No. 3-309: prey protein: C-terminal 91 amino acids (amino acids 993-1083 of SEQ ID NO: 4) of the human c-Met β chain (protein, listed as Homo sapiens)", "chain": "RRLLQPEYCPDPLYEVMLKCWHPKAEMRPSFSELVSRISAIFSTFIGEHYVHVNATYVNVKCVAPYPSLLSSEDNADDEVDTRPASFWETS"}, "B8": {"name": "clone No. 3-312: prey protein: C-terminal 89 amino acids (amino acids 995-1083 of SEQ ID NO: 4) of the human c-Met β chain (protein, listed as Homo sapiens)", "chain": "LLQPEYCPDPLYEVMLKCWHPKAEMRPSFSELVSRISAIFSTFIGEHYVHVNATYVNVKCVAPYPSLLSSEDNADDEVDTRPASFWETS"}, "B9": {"name": "clone No. 2-22: prey protein: C-terminal 93 amino acids (amino acids 411-503 of SEQ ID NO: 10) of human MERMUC (protein, listed as Homo sapiens)", "chain": "SSRGTNSTLAKITTSAKTTMKPPTATPTTARTRPTTDVSAGENGGFLLLRLSVASPEDLTDPRVAERLMQQLHRELHAHAPHFQVSLLRVRRG"}}, "data": [{"target": "T1, MERMUC bait protein (Homo sapiens, UniProt Q8N307)", "T1 construct": "Bait-2 corresponds to a 123 amino acid portion of the C-terminus (bait-2); expressed in transfected cells; host or cells: yeast AH109 strain (pGBKT7 bait vector)", "T1 sequence (Q8N307 587-709)": "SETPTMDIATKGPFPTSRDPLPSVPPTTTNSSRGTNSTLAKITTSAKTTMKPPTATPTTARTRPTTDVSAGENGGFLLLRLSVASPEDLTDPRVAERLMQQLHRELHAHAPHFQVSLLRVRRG", "experiment": "Yeast two-hybrid binding of c-Met prey deletion proteins to MERMUC bait-2", "conditions": "yeast growth on SD/-Leu,-Trp,-His and SD/-Leu,-Trp,-Ade; human MERMUC bait-2", "method": "The present invention was performed using the reported yeast two-hybrid system (Proc. Natl. Acad. Sci. USA., 1991, Vol. 88, p.9578-9582) based on conventional method and the experimental protocols appended to the reagents.\nPCR was performed using DNA (clone No. 3-309) corresponding to the 91 amino acids (amino acids 993-1083 of SEQ ID NO: 4) of the C-terminal region of the human HGF receptor c-Met β chain that was identified in the previous Example to have the binding ability to the cytoplasmic region of human MERMUC as a template. Seven DNA fragments shown below corresponding to the C-terminal region of the c-Met β chain having various lengths, wherein various length of N-terminal or C-terminal amino acids are deleted from said 91 amino acids were prepared via a conventional method by PCR: • A. DNA corresponding to a region (amino acids 1003-1083 of SEQ ID NO: 4) that lacks the 10 N-terminal amino acids of the 91 amino acids of the C-terminal human c-Met β chain; • B. DNA corresponding to a region (amino acids 1013-1083 of SEQ ID NO: 4) that lacks the 20 N-terminal amino acids of the 91 amino acids of the C-terminal human c-Met β chain; • C. DNA corresponding to a region (amino acids 1023-1083 of SEQ ID NO: 4) that lacks the 30 N-terminal amino acids of the 91 amino acids of the C-terminal human c-Met β chain; • D. DNA corresponding to a region (amino acids 993-1073 of SEQ ID NO: 4) that lacks the C-terminal 10 amino acids of the 91 amino acids of the C-terminal human c-Met β chain; • E. DNA corresponding to a region (amino acids 993-1063 of SEQ ID NO: 4) that lacks the 20 C-terminal amino acids of the 91 amino acids of the C-terminal human c-Met β chain; • F. DNA corresponding to a region (amino acids 993-1053 of SEQ ID NO: 4) that lacks the 30 C-terminal amino acids of the 91 amino acids of the C-terminal human c-Met β chain; and • G. DNA corresponding to a region (amino acids 993-1043 of SEQ ID NO: 4) that lacks the 40 C-terminal amino acids of the 91 amino acids of the C-terminal human c-Met β chain.\nFurthermore, the forward and reverse primers used for the PCR were designed to contain an EcoRI site and SalI site at their 5′ end, respectively. Each of the DNA fragments prepared by PCR were inserted into the EcoRI/SalI site of pADKT7 vector (a vector for a prey protein that contains a tryptophan biosynthesis gene as a marker; CLONTECH) in frame with GAL4-AD to prepare prey vectors wherein each of the 7 DNAs described above is inserted.\nEach of the 7 prey vectors was cointroduced into yeast AH109 strain with the human MERMUC bait-2 vector prepared in Example 1.\nThe binding activity between the c-Met prey proteins derived from the 7 DNA fragments and the MERMUC bait protein was analyzed by the yeast two-hybrid system described in Example 1. Specifically, the binding activity was evaluated based on the growth of yeast transformed with the vector on 2 kinds of yeast minimum media, i.e., (1) SD/-Leu, -Trp, -His media and (2) SD/-Leu, -Trp, -Ade media.", "values": [{"molecule": "B1", "binding activity with MERMUC bait protein": "+ (bound) (+ (bound))"}, {"molecule": "B2", "binding activity with MERMUC bait protein": "+ (bound) (+ (bound))"}, {"molecule": "B3", "binding activity with MERMUC bait protein": "+ (bound) (+ (bound))"}, {"molecule": "B4", "binding activity with MERMUC bait protein": "+ (bound) (+ (bound))"}, {"molecule": "B5", "binding activity with MERMUC bait protein": "− (no binding)"}, {"molecule": "B6", "binding activity with MERMUC bait protein": "+ (bound) (+ (bound))"}]}, {"system": "C-terminal region of human MERMUC (bait-2, bait-3)", "experiment": "Yeast two hybrid screening of human kidney cDNA library with MERMUC baits", "format": "binding", "conditions": "bait-2 = 123 amino acid portion of the C-terminus of human MERMUC", "method": "(§1) Specifically, yeast two hybrid system (Proc. Natl. Acad. Sci. USA., 1991, Vol.88, p.9578-9582) was performed to screen a human kidney cDNA library using cDNA corresponding to the C-terminal region of the human MERMUC as the bait (that is, fishing bait).\n(§2) Two kinds of bait (bait-2 and bait-3) were designed using each of Ex.-2 and Ex.-3 as the core. Bait-2 corresponds to a 123 amino acid portion of the C-terminus (bait-2) and bait-3 corresponds to the 65 C-terminal amino acids (bait-3).\n(§3) Each bait vector was obtained by inserting each DNA fragment obtained by digesting each of the PCR products with the restriction enzymes EcoRI and SalI into the EcoRI/SalI site of pGBKT7 vector (leucine biosynthesis gene as a marker; CLONTECH). In yeast, the gene within the vector is produced as a fusion protein ([fusion protein A]) with the DNA binding region (GAL4-DB) of the yeast transcription factor GAL4.\n(§4) On the other hand, each cDNA of the human kidney derived cDNA library (CLONTECH) that is used for the screening with the bait vector is inserted in pADK vector (tryptophan biosynthesis gene as a marker). Therefore, proteins produced through the expression of each of these cDNAs in yeast are produced as a fusion protein ([fusion protein B]) with the GAL4 transcriptional activation region (GAL4-AD).\n(§5) AH109 strain (leucine, tryptophan, histidine and adenine auxotrophic yeast; CLONTECH) was used as the yeast host. This yeast strain contains 3 types of genes (histidine biosynthesis gene, adenine biosynthesis gene and β-galactosidase gene) under the control of the GAL promoter on the chromosome.\n(§6) The function as a transcription factor is recovered through the fusion of GAL4-DB and GAL4-AD by the binding of the bait protein (the fusion protein A) with the prey protein (the fusion protein B).\n(§7) Each bait vector was introduced into yeast AH109 strain with the cDNA library plasmid mentioned above (50,000 clones per pool) by the polyethylene glycol/lithium acetate method for screening (J. Bacteriol., 1983, Vol. 153, p.163-16883; Curr. Genet., 1989, Vol. 16, p. 339-346; Nucleic Acids Res., 1991, Vol. 19, p. 5791; Nucleic Acids Res., 1992, Vol. 20, p.1425).\n(§8) The marker for the first selection of yeast with the desired transformation in the present screening was acquired histidine non-requirement due to the expression of the histidine biosynthesis gene. Therefore, after introducing the plasmid, yeast was cultured for 5 days at 30° C. in yeast minimum medium that lacks leucine, tryptophan and histidine (SD/-Leu,-Trp,-His) used for selecting transformants.\n(§9) Transformed yeast that grew on the plate upon cultivation were picked with toothpick and seeded on 3 kinds of plates described below, and then cultured for 5 days at 30° C. for a second selection of the desired clones: • <A> plate containing yeast minimum medium lacking leucine, tryptophan and histidine (SD/-Leu, -Trp, -His); • <B> plate containing yeast minimum medium lacking leucine, tryptophan and adenine (SD/-Leu, -Trp, -Ade); and • <C> plate containing yeast minimum medium lacking leucine and tryptophan, and supplemented with α-X-gal (20 ug/ml) (SD/-Leu, -Trp, +X-gal).\n(§10) Positive clones were identified as colonies growing on both of the above-mentioned <A> and <B> plates (acquirement of histidine and adenine non-requirement) and showing blue color on plate <C> (α-X-gal addition) (expression of β-galactosidase activity). Four prey cDNA clones (clones No. 3-309, No. 3-312, No. 2-22 and No. 2-211) were selected as positive.", "values": [{"molecule": "B7", "binding ability to the protein derived from bait-2": "had binding ability"}, {"molecule": "B8", "binding ability to the protein derived from bait-2": "had binding ability"}, {"molecule": "B9", "binding ability to the protein derived from bait-2": "had binding ability"}]}, {"system": "C-terminal region of human MERMUC (bait-2, bait-3)", "experiment": "Yeast two hybrid screening of human kidney cDNA library with MERMUC baits", "format": "binding", "conditions": "bait-3 = 65 C-terminal amino acids of human MERMUC", "method": "as §1, §2, §3, §4, §5, §6, §7, §8, §9, §10", "values": [{"molecule": "B7", "binding ability to the protein derived from bait-3": "had binding ability"}, {"molecule": "B8", "binding ability to the protein derived from bait-3": "had binding ability"}]}]}
